# Measurements reported in PMC9304055, “Biochemical analysis of novel NAA10 variants suggests distinct pathogenic mechanisms involving impaired protein N-terminal acetylation” (Human Genetics, 2022).
# B1: NAA15 (natural protein, human (endogenous in HeLa), UniProt Q9BXJ9 1-866, looked up)
# chain: MPAVSLPPKENALFKRILRCYEHKQYRNGLKFCKQILSNPKFAEHGETLAMKGLTLNCLGKKEEAYELVRRGLRNDLKSHVCWHVYGLLQRSDKKYDEAIKCYRNALKWDKDNLQILRDLSLLQIQMRDLEGYRETRYQLLQLRPAQRASWIGYAIAYHLLEDYEMAAKILEEFRKTQQTSPDKVDYEYSELLLYQNQVLREAGLYREALEHLCTYEKQICDKLAVEETKGELLLQLCRLEDAADVYRGLQERNPENWAYYKGLEKALKPANMLERLKIYEEAWTKYPRGLVPRRLPLNFLSGEKFKECLDKFLRMNFSKGCPPVFNTLRSLYKDKEKVAIIEELVVGYETSLKSCRLFNPNDDGKEEPPTTLLWVQYYLAQHYDKIGQPSIALEYINTAIESTPTLIELFLVKAKIYKHAGNIKEAARWMDEAQALDTADRFINSKCAKYMLKANLIKEAEEMCSKFTREGTSAVENLNEMQCMWFQTECAQAYKAMNKFGEALKKCHEIERHFIEITDDQFDFHTYCMRKITLRSYVDLLKLEDVLRQHPFYFKAARIAIEIYLKLHDNPLTDENKEHEADTANMSDKELKKLRNKQRRAQKKAQIEEEKKNAEKEKQQRNQKKKKDDDDEEIGGPKEELIPEKLAKVETPLEEAIKFLTPLKNLVKNKIETHLFAFEIYFRKEKFLLMLQSVKRAFAIDSSHPWLHECMIRLFNTAVCESKDLSDTVRTVLKQEMNRLFGATNPKNFNETFLKRNSDSLPHRLSAAKMVYYLDPSSQKRAIELATTLDESLTNRNLQTCMEVLEALYDGSLGDCKEAAEIYRANCHKLFPYALAFMPPGYEEDMKITVNGDSSAEAEELANEI
# notes: NAA15, large auxiliary subunit of the NatA complex, endogenous in HeLa cells, detected with NAA15 rabbit polyclonal antibody (previously called anti-NATH); also called auxiliary subunit of NatA; NATH; source: endogenous, HeLa lysate
# Target: T1, NAA10 A6P-V5 (human, UniProt P41227-1 1-235, A6P)
# T1 construct: NAA10, human, patient variant c.16G>C p.(A6P), made by site-directed mutagenesis of pcDNA3.1/NAA10-WT-V5; Same construct as m1 with the variant found in a patient; also called NAA10 p.(A6P); c.16G>C p.(Ala6Pro); source: HeLa, transfected, in lysate
# T1 sequence (looked up): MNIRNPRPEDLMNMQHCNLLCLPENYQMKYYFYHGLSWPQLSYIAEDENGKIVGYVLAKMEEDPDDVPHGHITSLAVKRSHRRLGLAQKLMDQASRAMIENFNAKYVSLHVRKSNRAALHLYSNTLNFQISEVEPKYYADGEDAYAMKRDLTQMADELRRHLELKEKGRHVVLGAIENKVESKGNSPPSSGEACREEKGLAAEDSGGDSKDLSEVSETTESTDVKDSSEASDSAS
# Assay: co-IP; anti-V5 immunoprecipitation (Dynabeads Protein G) of NAA10-V5 from lysates of transfected HeLa cells; lysis buffer 50 mM Tris-HCl pH 8.0, 150 mM NaCl, 5 mM EDTA, 0.5% NP-40, 4 °C; co-precipitated NAA15 detected by Western blot
# Conditions: partners not purified
binder,measurement,value
B1,fold less NAA15 co-immunoprecipitated than with NAA10 WT-V5,5 fold
